According to the supplement of paper PMC5998384:

Experiments:
HeLa Kyoto [1] = test: solubility in G1/S (NP-40 vs SDS abundance) (log2 ratio); higher = more soluble; conditions: cell cycle stage: G1/S
HeLa Kyoto [2] = test: melting temperature (median over replicates), in situ; higher = more thermally stable
HeLa Kyoto [3] = test: solubility change mitosis vs G1/S (difference of NP-40 vs SDS log2 ratios) (log2 ratio difference); higher = more soluble in mitosis
HeLa Kyoto [4] = test: thermal stability score vs G1/S (z-score of summed log2 fold changes over temperatures); higher = more thermally stable than in G1/S
[5] = cell cycle stage: early G1 (4.5 h after nocodazole release)
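Throughout, for melting temperature (median over replicates), in situ: HeLa Kyoto cells synchronized by double thymidine or nocodazole block, proteins quantified by TMT10plex mass spectrometry, three independent biological replicates.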
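Throughout, for solubility change mitosis vs G1/S (difference of NP-40 vs SDS log2 ratios): synchronized HeLa Kyoto cells (double thymidine block for G1/S, nocodazole release for mitosis), protein amounts in NP-40 versus SDS lysates quantified by mass spectrometry, three biological replicates.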
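Throughout, for solubility in G1/S (NP-40 vs SDS abundance): HeLa Kyoto cells arrested at G1/S by double thymidine block, proteins quantified by TMT10plex mass spectrometry in mild NP-40 versus SDS extracts, three biological replicates.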
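Throughout, for thermal stability score vs G1/S (z-score of summed log2 fold changes over temperatures): synchronized HeLa Kyoto cells, proteins quantified by TMT10plex mass spectrometry, three biological replicates, mitosis taken 0.5 h after nocodazole release, G1/S directly after double thymidine block.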

For “MCGIWALFGSDDCLSVQCLSAMKIAHRGPDAFRFENVNGYTNCCFGFHRLAVVDPLFGMQPIRVKKYPYLWLCYNGEIYNHKKMQQHFEFEYQTKVDGEIILHLYDKGGIEQTICMLDGVFAFVLLDTANKKVFLGRDTYGVRPLFKAMTEDGFLAVCSEAKGLVTLKHSATPFLKVEPFLPGHYEVLDLKPNGKVASVEMVKYHHCRDVPLHALYDNVEKLFPGFEIETVKNNLRILFNNAVKKRLMTDRRIGCLLSGGLDSSLVAATLLKQLKEAQVQYPLQTFAIGMEDSPDLLAARKVADHIGSEHYEVLFNSEEGIQALDEVIFSLETYDITTVRASVGMYLISKYIRKNTDSVVIFSGEGSDELTQGYIYFHKAPSPEKAEEESERLLRELYLFDVLRADRTTAAHGLELRVPFLDHRFSSYYLSLPPEMRIPKNGIEKHLLRETFEDSNLIPKEILWRPKEAFSDGITSVKNSWFKILQEYVEHQVDDAMMANAAQKFPFNTPKTKEGYYYRQVFERHYPGRADWLSHYWMPKWINATDPSARTLTHYKSAVKA [ASNS]”, the “solubility in G1/S (log2)” value (HeLa Kyoto [1]) was -0.142, the melting temperature (HeLa Kyoto [2]; cell cycle stage: G1/S) was 52.8 °C and the melting temperature (HeLa Kyoto [2]; cell cycle stage: mitosis) was 53.1 °C. The “solubility change mitosis (log2)” value (HeLa Kyoto [3]) was -0.21, the thermal stability score (HeLa Kyoto [4]; [5]) was 2.34 and the thermal stability score (HeLa Kyoto [4]; cell cycle stage: mitosis) was -0.215.

In the case of “MCQVGEDYGEPAPEEPPPAPRPSREQKCVKCKEAQPVVVIRAGDAFCRDCFKAFYVHKFRAMLGKNRLIFPGEKVLLAWSGGPSSSSMVWQVLEGLSQDSAKRLRFVAGVIFVDEGAACGQSLEERSKTLAEVKPILQATGFPWHVVALEEVFSLPPSVLWCSAQELVGSEGAYKAAVDSFLQQQHVLGAGGGPGPTQGEEQPPQPPLDPQNLARPPAPAQTEALSQLFCSVRTLTAKEELLQTLRTHLILHMARAHGYSKVMTGDSCTRLAIKLMTNLALGRGAFLAWDTGFSDERHGDVVVVRPMRDHTLKEVAFYNRLFSVPSVFTPAVDTKAPEKASIHRLMEAFILRLQTQFPSTVSTVYRTSEKLVKGPRDGPAAGDSGPRCLLCMCALDVDAADSATAFGAQTSSRLSQMQSPIPLTETRTPPGPCCSPGVGWAQRCGQGACRREDPQACIEEQLCYSCRVNMKDLPSLDPLPPYILAEAQLRTQRAWGLQEIRDCLIEDSDDEAGQS [CTU2]”, the “solubility in G1/S (log2)” value (HeLa Kyoto [1]) was 0.28, the melting temperature (HeLa Kyoto [2]; cell cycle stage: G1/S) was 53.4 °C and the melting temperature (HeLa Kyoto [2]; cell cycle stage: mitosis) was 52.8 °C. The “solubility change mitosis (log2)” value (HeLa Kyoto [3]) was -0.166, the thermal stability score (HeLa Kyoto [4]; [5]) was -0.721 and the thermal stability score (HeLa Kyoto [4]; cell cycle stage: mitosis) was -0.101.

With “MDAALKRSRSEEPAEILPPARDEEEEEEEGMEQGLEEEEEVDPRIQGELEKLNQSTDDINRRETELEDARQKFRSVLVEATVKLDELVKKIGKAVEDSKPYWEARRVARQAQLEAQKATQDFQRATEVLRAAKETISLAEQRLLEDDKRQFDSAWQEMLNHATQRVMEAEQTKTRSELVHKETAARYNAAMGRMRQLEKKLKRAINKSKPYFELKAKYYVQLEQLKKTVDDLQAKLTLAKGEYKMALKNLEMISDEIHERRRSSAMGPRGCGVGAEGSSTSVEDLPGSKPEPDAISVASEAFEDDSCSNFVSEDDSETQSVSSFSSGPTSPSEMPDQFPAVVRPGSLDLPSPVSLSEFGMMFPVLGPRSECSGASSPECEVERGDRAEGAENKTSDKANNNRGLSSSSGSGGSSKSQSSTSPEGQALENRMKQLSLQCSKGRDGIIADIKMVQIG [SH3BP5]” the “solubility in G1/S (log2)” value (HeLa Kyoto [1]) was 0.134, the melting temperature (HeLa Kyoto [2]; cell cycle stage: G1/S) was 53.2 °C and the melting temperature (HeLa Kyoto [2]; cell cycle stage: mitosis) was 52 °C. For the same sequence, the “solubility change mitosis (log2)” value (HeLa Kyoto [3]) was -0.0509, the thermal stability score (HeLa Kyoto [4]; [5]) was -1.02 and the thermal stability score (HeLa Kyoto [4]; cell cycle stage: mitosis) was -0.824.

“MDALKSAGRALIRSPSLAKQSWGGGGRHRKLPENWTDTRETLLEGMLFSLKYLGMTLVEQPKGEELSAAAIKRIVATAKASGKKLQKVTLKVSPRGIILTDNLTNQLIENVSIYRISYCTADKMHDKVFAYIAQSQHNQSLECHAFLCTKRKMAQAVTLTVAQAFKVAFEFWQVSKEEKEKRDKASQEGGDVLGARQDCTPSLKSLVATGNLLDLEETAKAPLSTVSANTTNMDEVPRPQALSGSSVVWELDDGLDEAFSRLAQSRTNPQVLDTGLTAQDMHYAQCLSPVDWDKPDSSGTEQDDLFSF [LDLRAP1]” was tested, and the “solubility in G1/S (log2)” value (HeLa Kyoto [1]) was 0.466, the melting temperature (HeLa Kyoto [2]; cell cycle stage: mitosis) was 50 °C and the “solubility change mitosis (log2)” value (HeLa Kyoto [3]) was 0.0321. For the same sequence, the thermal stability score (HeLa Kyoto [4]; [5]) was -0.147 and the thermal stability score (HeLa Kyoto [4]; cell cycle stage: mitosis) was 0.000284.

In the case of “MDALQLANSAFAVDLFKQLCEKEPLGNVLFSPICLSTSLSLAQVGAKGDTANEIGQVLHFENVKDVPFGFQTVTSDVNKLSSFYSLKLIKRLYVDKSLNLSTEFISSTKRPYAKELETVDFKDKLEETKGQINNSIKDLTDGHFENILADNSVNDQTKILVVNAAYFVGKWMKKFSESETKECPFRVNKTDTKPVQMMNMEATFCMGNIDSINCKIIELPFQNKHLSMFILLPKDVEDESTGLEKIEKQLNSESLSQWTNPSTMANAKVKLSIPKFKVEKMIDPKACLENLGLKHIFSEDTSDFSGMSETKGVALSNVIHKVCLEITEDGGDSIEVPGARILQHKDELNADHPFIYIIRHNKTRNIIFFGKFCSP [SERPINB5]”, the “solubility in G1/S (log2)” value (HeLa Kyoto [1]) was 0.403, the melting temperature (HeLa Kyoto [2]; cell cycle stage: G1/S) was 52.3 °C and the melting temperature (HeLa Kyoto [2]; cell cycle stage: mitosis) was 52.6 °C. The “solubility change mitosis (log2)” value (HeLa Kyoto [3]) was -0.146, the thermal stability score (HeLa Kyoto [4]; [5]) was 1.51 and the thermal stability score (HeLa Kyoto [4]; cell cycle stage: mitosis) was 0.174.

“MDARWWAVVVLAAFPSLGAGGETPEAPPESWTQLWFFRFVVNAAGYASFMVPGYLLVQYFRRKNYLETGRGLCFPLVKACVFGNEPKASDEVPLAPRTEAAETTPMWQALKLLFCATGLQVSYLTWGVLQERVMTRSYGATATSPGERFTDSQFLVLMNRVLALIVAGLSCVLCKQPRHGAPMYRYSFASLSNVLSSWCQYEALKFVSFPTQVLAKASKVIPVMLMGKLVSRRSYEHWEYLTATLISIGVSMFLLSSGPEPRSSPATTLSGLILLAGYIAFDSFTSNWQDALFAYKMSSVQMMFGVNFFSCLFTVGSLLEQGALLEGTRFMGRHSEFAAHALLLSICSACGQLFIFYTIGQFGAAVFTIIMTLRQAFAILLSCLLYGHTVTVVGGLGVAVVFAALLLRVYARGRLKQRGKKAVPVESPVQKV [SLC35B2]” was tested, and the “solubility in G1/S (log2)” value (HeLa Kyoto [1]) was 0.112, the melting temperature (HeLa Kyoto [2]; cell cycle stage: G1/S) was 54.9 °C and the melting temperature (HeLa Kyoto [2]; cell cycle stage: mitosis) was 56.3 °C. For the same sequence, the “solubility change mitosis (log2)” value (HeLa Kyoto [3]) was -0.177, the thermal stability score (HeLa Kyoto [4]; [5]) was -0.147 and the thermal stability score (HeLa Kyoto [4]; cell cycle stage: mitosis) was 1.08.

With “MDCSLVRTLVHRYCAGEENWVDSRTIYVGHREPPPGAEAYIPQRYPDNRIVSSKYTFWNFIPKNLFEQFRRVANFYFLIIFLVQLIIDTPTSPVTSGLPLFFVITVTAIKQGYEDWLRHKADNAMNQCPVHFIQHGKLVRKQSRKLRVGDIVMVKEDETFPCDLIFLSSNRGDGTCHVTTASLDGESSHKTHYAVQDTKGFHTEEDIGGLHATIECEQPQPDLYKFVGRINVYSDLNDPVVRPLGSENLLLRGATLKNTEKIFGVAIYTGMETKMALNYQSKSQKRSAVEKSMNAFLIVYLCILISKALINTVLKYMWQSEPFRDEPWYNQKTESERQRNLFLKAFTDFLAFMVLFNYIIPVSMYVTVEMQKFLGSYFITWDEDMFDEETGEGPLVNTSDLNEELGQVEYIFTDKTGTLTENNMEFKECCIEGHVYVPHVICNGQVLPESSGIDMIDSSPSVNGREREELFFRALCLCHTVQVKDDDSVDGPRKSPDGGKSCVYISSSPDEVALVEGVQRLGFTYLRLKDNYMEILNRENHIERFELLEILSFDSVRRRMSVIVKSATGEIYLFCKGADSSIFPRVIEGKVDQIRARVERNAVEGLRTLCVAYKRLIQEEYEGICKLLQAAKVALQDREKKLAEAYEQIEKDLTLLGATAVEDRLQEKAADTIEALQKAGIKVWVLTGDKMETAAATCYACKLFRRNTQLLELTTKRIEEQSLHDVLFELSKTVLRHSGSLTRDNLSGLSADMQDYGLIIDGAALSLIMKPREDGSSGNYRELFLEICRSCSAVLCCRMAPLQKAQIVKLIKFSKEHPITLAIGDGANDVSMILEAHVGIGVIGKEGRQAARNSDYAIPKFKHLKKMLLVHGHFYYIRISELVQYFFYKNVCFIFPQFLYQFFCGFSQQTLYDTAYLTLYNISFTSLPILLYSLMEQHVGIDVLKRDPTLYRDVAKNALLRWRVFIYWTLLGLFDALVFFFGAYFVFENTTVTSNGQIFGNWTFGTLVFTVMVFTVTLKLALDTHYWTWINHFVIWGSLLFYVVFSLLWGGVIWPFLNYQRMYYVFIQMLSSGPAWLAIVLLVTISLLPDVLKKVLCRQLWPTATERVQTKSQCLSVEQSTIFMLSQTSSSLSF [ATP11A]” the “solubility in G1/S (log2)” value (HeLa Kyoto [1]) was -0.526, the melting temperature (HeLa Kyoto [2]; cell cycle stage: G1/S) was 53.8 °C and the melting temperature (HeLa Kyoto [2]; cell cycle stage: mitosis) was 53.8 °C. For the same sequence, the “solubility change mitosis (log2)” value (HeLa Kyoto [3]) was 0.163, the thermal stability score (HeLa Kyoto [4]; [5]) was -1.06 and the thermal stability score (HeLa Kyoto [4]; cell cycle stage: mitosis) was -0.922.
